The source of these data is article PMC6361588, “Exploration of CTCF post-translation modifications uncovers Serine-224 phosphorylation by PLK1 at pericentric regions during the G2/M transition”.

In one data set the target is T1, FLAG-CTCF(S224E)-6xHis (UniProt Q61164 1-736, S224E).
T1 sequence: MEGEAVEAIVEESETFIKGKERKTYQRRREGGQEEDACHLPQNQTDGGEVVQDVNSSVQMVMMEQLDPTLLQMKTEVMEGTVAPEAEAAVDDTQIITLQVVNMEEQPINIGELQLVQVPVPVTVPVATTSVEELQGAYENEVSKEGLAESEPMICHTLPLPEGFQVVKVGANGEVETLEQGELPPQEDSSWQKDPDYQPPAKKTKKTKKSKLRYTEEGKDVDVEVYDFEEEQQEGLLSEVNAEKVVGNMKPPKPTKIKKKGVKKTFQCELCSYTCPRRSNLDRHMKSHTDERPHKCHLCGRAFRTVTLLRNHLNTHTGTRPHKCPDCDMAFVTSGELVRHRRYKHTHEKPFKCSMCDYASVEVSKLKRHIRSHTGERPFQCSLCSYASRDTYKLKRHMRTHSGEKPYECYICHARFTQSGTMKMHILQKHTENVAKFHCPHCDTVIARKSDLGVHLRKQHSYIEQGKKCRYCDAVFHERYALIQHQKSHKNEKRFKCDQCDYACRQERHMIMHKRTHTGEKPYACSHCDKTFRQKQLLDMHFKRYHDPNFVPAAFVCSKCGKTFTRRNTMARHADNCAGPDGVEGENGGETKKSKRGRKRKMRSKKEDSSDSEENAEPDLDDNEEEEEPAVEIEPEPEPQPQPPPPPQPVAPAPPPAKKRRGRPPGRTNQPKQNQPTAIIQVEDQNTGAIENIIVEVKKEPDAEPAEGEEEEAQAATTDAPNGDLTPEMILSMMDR
The data set can be described thus: EMSA; 0.5, 1 or 2 pmol protein; EMSA as in Sun et al., 2013; buffer, salt, pH and temperature not given in the material. Particulars: protein: recombinant; tags: N-terminal FLAG, C-terminal 6xHis; blunt.

Another data set deals with T2, FLAG-CTCF(S224A)-6xHis (UniProt Q61164 1-736, S224A).
T2 sequence: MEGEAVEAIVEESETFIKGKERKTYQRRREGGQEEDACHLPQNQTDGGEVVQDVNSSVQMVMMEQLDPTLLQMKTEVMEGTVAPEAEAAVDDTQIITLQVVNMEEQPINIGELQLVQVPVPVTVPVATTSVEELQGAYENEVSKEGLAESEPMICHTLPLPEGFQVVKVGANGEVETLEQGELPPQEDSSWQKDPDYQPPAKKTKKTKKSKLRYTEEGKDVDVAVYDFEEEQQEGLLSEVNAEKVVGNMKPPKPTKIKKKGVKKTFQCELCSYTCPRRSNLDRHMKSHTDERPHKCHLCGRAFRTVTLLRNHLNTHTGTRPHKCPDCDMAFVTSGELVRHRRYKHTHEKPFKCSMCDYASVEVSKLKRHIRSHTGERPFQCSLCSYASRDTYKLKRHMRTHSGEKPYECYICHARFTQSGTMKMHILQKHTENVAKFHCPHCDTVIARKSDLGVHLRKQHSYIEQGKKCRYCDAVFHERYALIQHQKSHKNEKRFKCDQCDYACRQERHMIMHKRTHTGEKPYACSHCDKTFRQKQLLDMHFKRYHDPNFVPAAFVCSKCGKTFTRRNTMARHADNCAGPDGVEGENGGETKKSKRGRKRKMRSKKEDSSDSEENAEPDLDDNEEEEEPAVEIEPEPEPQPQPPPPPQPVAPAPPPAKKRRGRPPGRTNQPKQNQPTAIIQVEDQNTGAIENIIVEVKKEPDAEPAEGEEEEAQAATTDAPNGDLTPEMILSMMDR
Described as above. The settings on record: protein: recombinant; tags: N-terminal FLAG, C-terminal 6xHis; blunt.

B1: RS14C (dsDNA)
DNA 1: CTATGCATTAGGTTTGGGTGTTATACCCGTGTAGGCCAGCAGAGGGTGTCGGATCCCAAGGAAACCAAGTTACAGACGCC
DNA 2: GGCGTCTGTAACTTGGTTTCCTTGGGATCCGACACCCTCTGCTGGCCTACACGGGTATAACACCCAAACCTAATGCATAG
For B1, the binding result in the data set with FLAG-CTCF(S224E)-6xHis and in the data set with FLAG-CTCF(S224A)-6xHis was “binds” in each case.

B2: RS14C mutant (dsDNA)
DNA 1: CTATGCATTAGGTTTGGGTGTTATACCCGTGTAGGCTAGCACAGTGTGTCGGATCCCAAGGAAACCAAGTTACAGACGCC
DNA 2: GGCGTCTGTAACTTGGTTTCCTTGGGATCCGACACACTGTGCTAGCCTACACGGGTATAACACCCAAACCTAATGCATAG
For B2, the binding result in the data set with FLAG-CTCF(S224E)-6xHis and in the data set with FLAG-CTCF(S224A)-6xHis was “no binding” in each case.
